Measured values as given in paper PMC12281766, “Inhibition of FAM19A5 reverses synaptic loss and cognitive decline in mouse models of Alzheimer’s disease” (Alzheimer's Research & Therapy, 2025).
One block for each molecule: values may come before it.

Tests used:
[1] = target: T1, His-TEV LRRC4B; assay: ELISA; captured by His-TEV LRRC4B, detected by HRP-conjugated C-A5-Ab
T1 sequence (Q9NT99 whole entry, species assumed, looked up): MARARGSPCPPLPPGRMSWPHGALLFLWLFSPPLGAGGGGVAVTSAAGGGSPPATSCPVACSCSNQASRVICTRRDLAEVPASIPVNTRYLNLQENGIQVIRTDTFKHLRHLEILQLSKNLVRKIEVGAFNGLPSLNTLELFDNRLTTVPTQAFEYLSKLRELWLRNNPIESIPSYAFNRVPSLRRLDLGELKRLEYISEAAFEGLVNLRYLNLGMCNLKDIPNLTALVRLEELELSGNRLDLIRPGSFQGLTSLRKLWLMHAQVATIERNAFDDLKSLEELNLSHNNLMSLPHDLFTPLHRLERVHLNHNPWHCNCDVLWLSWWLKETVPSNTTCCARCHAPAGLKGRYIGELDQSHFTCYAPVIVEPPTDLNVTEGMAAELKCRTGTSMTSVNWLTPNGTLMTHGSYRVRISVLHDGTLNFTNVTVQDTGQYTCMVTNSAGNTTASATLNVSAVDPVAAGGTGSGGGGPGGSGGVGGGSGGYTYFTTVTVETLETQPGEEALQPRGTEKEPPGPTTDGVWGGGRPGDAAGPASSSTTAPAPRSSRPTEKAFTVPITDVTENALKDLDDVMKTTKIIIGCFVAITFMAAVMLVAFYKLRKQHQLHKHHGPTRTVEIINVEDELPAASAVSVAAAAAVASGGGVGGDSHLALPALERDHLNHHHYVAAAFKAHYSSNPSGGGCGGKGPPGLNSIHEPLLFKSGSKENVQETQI

[2] = target: T1, His-TEV LRRC4B; assay: ELISA; competition: LRRC4B-PTPRF complex in the presence of FAM19A5; captured by His-TEV LRRC4B, detected by HRP-conjugated anti-human IgG Fc
[3] = target: T2, His-TEV LRRC4B; assay: competition ELISA (dissociation of LRRC4B-PTPRF complex); conditions: chain shown with the change; read at the highest FAM19A5 concentration, about 1e4 nM; signal is PTPRF remaining bound to His-TEV LRRC4B, so a lower OD means more displacement by FAM19A5 …; parent: est. 0.16; read off a plot
T2 chain: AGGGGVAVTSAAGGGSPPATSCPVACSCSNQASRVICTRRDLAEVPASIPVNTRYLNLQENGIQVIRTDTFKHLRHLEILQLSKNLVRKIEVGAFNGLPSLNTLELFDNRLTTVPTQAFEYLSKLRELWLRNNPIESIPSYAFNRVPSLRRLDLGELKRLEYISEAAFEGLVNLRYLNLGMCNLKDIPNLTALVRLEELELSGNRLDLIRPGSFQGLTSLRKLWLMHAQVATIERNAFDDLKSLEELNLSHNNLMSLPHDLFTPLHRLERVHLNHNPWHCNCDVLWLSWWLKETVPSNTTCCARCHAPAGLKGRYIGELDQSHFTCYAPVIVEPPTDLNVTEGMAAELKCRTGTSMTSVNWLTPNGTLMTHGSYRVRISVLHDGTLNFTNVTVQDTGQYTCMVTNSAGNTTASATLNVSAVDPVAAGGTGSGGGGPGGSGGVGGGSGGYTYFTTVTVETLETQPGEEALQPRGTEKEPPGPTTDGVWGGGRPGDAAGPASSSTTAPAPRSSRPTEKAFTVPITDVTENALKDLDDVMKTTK

[4] = target: T3, recombinant FAM19A5 (family with sequence similarity 19 member A5) (UniProt Q7Z5A7 44-132); assay: ELISA; competition: FAM19A5 captured by LRRC4B(36–576)-hFc in the presence of inhibitor, detected by HRP-conjugated C-A5-Ab; conditions: both partners purified
T3 construct: FAM19A5 (TAFA5), secretory protein; also called TAFA5; WT FAM19A5; source: recombinant
T3 sequence (Q7Z5A7 44-132): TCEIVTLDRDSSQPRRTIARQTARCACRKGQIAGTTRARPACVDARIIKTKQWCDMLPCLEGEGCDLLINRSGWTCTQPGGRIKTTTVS

Molecule: MT FAM19A5 (R58A, R59A) (from UniProt Q7Z5A7 44-132) (natural protein)
EC50 [1]: 0.595 nM

B2: LRRC4B(453–576)-hFc (Fc fusion, UniProt Q9NT99 453-576, looked up)
chain: VSAVDPVAAGGTGSGGGGPGGSGGVGGGSGGYTYFTTVTVETLETQPGEEALQPRGTEKEPPGPTTDGVWGGGRPGDAAGPASSSTTAPAPRSSRPTEKAFTVPITDVTENALKDLDDVMKTTK
notes: also called WT FB-containing protein; FB protein; source: recombinant
IC50 [4]: 8.1 nM

The remaining lines, values ahead:

EC50 [1]: 0.41 nM
IC50 [2]: 281 nM
Molecule: recombinant FAM19A5 (family with sequence similarity 19 member A5) (from UniProt Q7Z5A7 44-132) (natural protein)

response [3]: 0.52 OD (450 nm)
B1: recombinant FAM19A5 (family with sequence similarity 19 member A5), Q7Z5A7 R58A; R59A; R125A; K127A (protein)
chain: TCEIVTLDRDSSQPAATIARQTARCACRKGQIAGTTRARPACVDARIIKTKQWCDMLPCLEGEGCDLLINRSGWTCTQPGGAIATTTVS
